Experimental data as given in article PMC2864300, “Regulation of NOXO1 Activity through Reversible Interactions with p22^phox and NOXA1” (PLoS ONE, 2010).
Blank lines part the entries; values can stand above or below the substance they belong to.

What was measured:
[1] = target: human NOXO1 SH3AB–E (tandem SH3 domains plus the C-terminal portion of NOXO1) (human); test: ITC; MicroCal VP-ITC, 18°C; 150 mM NaCl, 1 mM DTT, 50 mM HEPES pH 7.4; typically 20–40 µM protein in the cell, 200–300 µM ligand injected; single-site binding model; averaged over three to five experiments
[2] = target: human NOXO1 SH3AB–E triple mutant (proline residues 323, 326 and 329 to alanine) (human); test: as above
[3] = target: human NOXO1 tandem SH3 domains (SH3AB) (human); test: as above
[4] = target: p67phox C-terminal SH3 (Homo sapiens) (UniProt P19878); conditions: cited from earlier work
Sequence of p67phox C-terminal SH3 (Homo sapiens) (P19878 457-516): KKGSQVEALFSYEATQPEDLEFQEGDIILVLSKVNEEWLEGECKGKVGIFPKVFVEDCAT

[5] = target: p22phox cytoplasmic domain (Homo sapiens) (UniProt P13498); conditions: cited from earlier work
Sequence of p22phox cytoplasmic domain (Homo sapiens) (P13498 132-195): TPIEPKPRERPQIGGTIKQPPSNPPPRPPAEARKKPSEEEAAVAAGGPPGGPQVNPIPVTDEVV

[6] = target: mouse NOXO1 tandem SH3 domains (SH3AB) (mouse); test: ITC; MicroCal VP-ITC, 18°C; 150 mM NaCl, 1 mM DTT, 50 mM HEPES pH 7.4; typically 20–40 µM protein in the cell, 200–300 µM ligand injected; single-site binding model; averaged over three to five experiments

Sequence of p47phox C-terminal proline-rich region (P14598 359-390): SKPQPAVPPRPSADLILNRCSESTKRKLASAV
Sequence of p47phox tandem SH3 (P14598 156-285): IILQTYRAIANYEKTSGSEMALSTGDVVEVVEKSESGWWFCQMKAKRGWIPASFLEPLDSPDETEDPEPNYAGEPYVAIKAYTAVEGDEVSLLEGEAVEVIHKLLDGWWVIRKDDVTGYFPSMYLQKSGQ

dH [1]: -3.2 kcal/mol
Kd [2]: 530 nM
dH [2]: -8.1 kcal/mol
Kd [3]: 150 nM
dH [3]: -16.8 kcal/mol
Substance: human p22^phox cytoplasmic domain (p22^phoxC) (domain or fragment)

Substance: p47phox C-terminal proline-rich region (from UniProt P14598)
Kd [4]: 20 nM

Substance: p47phox tandem SH3 (from UniProt P14598)
Kd [5]: 190 nM

Kd [6]: 68 nM
dH [6]: -12.9 kcal/mol
Substance: mouse p22^phox cytoplasmic domain (p22^phoxC) (from UniProt Q61462 127-192) (domain or fragment)
